From article PMC12828721

Legend:
murine CD64 (FcγRI) = murine CD64 (FcγRI) (UniProt P26151); assay: ELISA; conditions: highest concentration point (about 1e4 nM); parent: est. 1.2; read off a plot
human CD64 (FcγRI) = human CD64 (FcγRI) (UniProt P12314); assay: ELISA; conditions: highest concentration point (about 500 nM); parent: est. 3.4; read off a plot
MSLN = assay: BLI (Blitz); conditions: 800nM trace, read at end of association (about 120 s); parent: est. 0.63; read off a plot

UniProt P26151, sequence (P26151 25-404): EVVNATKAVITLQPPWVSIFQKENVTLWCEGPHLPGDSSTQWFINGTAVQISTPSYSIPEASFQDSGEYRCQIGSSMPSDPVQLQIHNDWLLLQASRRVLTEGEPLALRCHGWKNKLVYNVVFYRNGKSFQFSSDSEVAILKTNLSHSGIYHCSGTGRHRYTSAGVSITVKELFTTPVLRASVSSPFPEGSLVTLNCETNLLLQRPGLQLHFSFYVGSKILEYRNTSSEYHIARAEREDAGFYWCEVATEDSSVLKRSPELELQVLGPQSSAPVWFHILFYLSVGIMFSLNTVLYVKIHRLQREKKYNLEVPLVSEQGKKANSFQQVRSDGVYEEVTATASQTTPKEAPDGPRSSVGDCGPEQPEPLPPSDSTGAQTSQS
UniProt P12314, sequence (P12314 16-374): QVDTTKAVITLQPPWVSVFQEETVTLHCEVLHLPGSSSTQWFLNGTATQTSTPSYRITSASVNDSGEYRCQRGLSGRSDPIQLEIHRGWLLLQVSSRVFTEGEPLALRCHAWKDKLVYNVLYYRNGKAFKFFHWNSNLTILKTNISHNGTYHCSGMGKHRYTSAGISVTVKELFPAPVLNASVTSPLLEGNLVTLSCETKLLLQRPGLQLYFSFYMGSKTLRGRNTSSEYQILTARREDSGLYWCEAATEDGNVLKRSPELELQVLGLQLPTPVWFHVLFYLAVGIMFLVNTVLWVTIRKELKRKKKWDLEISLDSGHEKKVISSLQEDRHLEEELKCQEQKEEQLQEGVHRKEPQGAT

| response (murine CD64 (FcγRI)) [OD450] | response (human CD64 (FcγRI)) [OD450] | response (MSLN) [nm] | Substance |
| --- | --- | --- | --- |
| 0.25 | 0.22 | 0.78 | 2A10-VH-FcWT (from UniProt P01857) L234A; L235A; P329G |
| 0.3 | 0.27 | 0.78 | 2A10-VH-FcWT (from UniProt P01857) G236R; L328R |
